According to patent US20170107294A1, “ANTI-CD14 ANTIBODIES AND USES THEREOF” (Nordlandssykehuset HF, priority 2014, published 2017):

T1: porcine CD14 (Sus scrofa, UniProt F6PST4)
T1 sequence (F6PST4 21-373): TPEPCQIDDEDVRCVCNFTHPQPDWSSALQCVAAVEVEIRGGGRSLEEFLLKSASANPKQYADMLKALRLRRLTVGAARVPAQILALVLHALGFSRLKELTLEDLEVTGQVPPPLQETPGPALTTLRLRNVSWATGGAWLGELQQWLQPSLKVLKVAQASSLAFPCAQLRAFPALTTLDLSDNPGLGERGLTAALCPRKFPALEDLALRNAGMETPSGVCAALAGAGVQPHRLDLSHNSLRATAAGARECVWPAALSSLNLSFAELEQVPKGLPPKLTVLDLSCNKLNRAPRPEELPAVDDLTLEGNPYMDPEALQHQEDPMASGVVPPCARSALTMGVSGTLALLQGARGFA

B1: Mil2: mouse anti-porcine CD14 IgG2b clone Mil2 (Serotec), original murine clone (antibody, V domains shown)
VH: QVRLQQPGAELVRPGASVKLSCKASGYTFTTYWMNWVKQRPEDGLEWIGRIDPYDSETHYNQNFKDKAILTVDKSSSTAYMQLSSLTYEDSAVYYCTRKEGRQWGAYFDYWGQGTTLTVSSA
VL: DIVMTQSQKFMSTSVGDRVSVTCKASQYVGTNVAWYQQKPGQSPKALIQSASYRCSGVPDRFTGSGSGTDFTLTISNVQSEDLADYFCQQYNTYVTFGGGTKLELKR
B2: rMil2: recombinant anti-porcine CD14 mouse/human chimeric IgG2/4 Ab; VL SEQ ID NO:3, VH SEQ ID NO:4 (antibody, V domains shown)
VH: MGWSCIILFLVATATGVHSQVRLQQPGAELVRPGASVKLSCKASGYTFTTYWMNWVKQRPEDGLEWIGRIDPYDSETHYNQNFKDKAILTVDKSSSTAYMQLSSLTYEDSAVYYCTRKEGRQWGAYFDYWGQGTTLTVSSA
VL: MGWSCIILFLVATATGVHSDIVMTQSQKFMSTSVGDRVSVTCKASQYVGTNVAWYQQKPGQSPKALIQSASYRCSGVPDRFTGSGSGTDFTLTISNVQSEDLADYFCQQYNTYVTFGGGTKLELKR
modifications: human IgG2/4 constant regions

Tests used:
porcine whole blood [1] = assay: Adverse (IgG-Fc mediated) effects in nonactivated porcine whole blood; format: cell-based; conditions: absence of inflammatory stimuli; for spontaneous IL-8 release: 50 mg/ml; for platelet counts / platelet aggregation: up to 71.4 mg/ml
Method: (§1) The whole blood model has been described in detail previously (36). Fresh human venous or porcine arterial blood was drawn directly into tubes containing the anticoagulant lepirudin (Pharmion) at a final concentration of 50 mg/ml. In 1.8-ml Cryo Tube vials (Nunc, Roskilde, Denmark), the blood was preincubated with up to 20 mg/ml anti-human CD14 (r18D11 or 18D11), or 50 mg/ml anti-porcine CD14 (rMil2 or Mil2) at 37° C. for 10 min prior to an additional 2-h incubation in the presence of 100 ng/ml ultrapure LPS from Escherichia coli 0111:B4 (InvivoGen, San Diego, Calif.) for human blood or 1 3 105/ml heat-inactivated E. coli (strain LE392, ATCC33572) for porcine blood. As negative controls, PBS with MgCl2 and CaCl2 (Sigma-Aldrich) and isotype controls were used. Adverse effects were tested using nonactivated whole blood samples. After the addition of 10 mM (human) or 20 mM (porcine) EDTA, plasma was gained by 15 min centrifugation at 3220 3 g and 4° C. Levels of TNF, IL-6, and IL-1b in human plasma were determined using Bioplex technology (Bio-Rad Laboratories AB). Levels of TNF, IL-1b, and IL-8 in porcine plasma were determined using ELISA (Quantikine, R&D Systems, Minneapolis, Minn.). Platelet count was quantified by impedance using a CELL-DYN Sapphire hematology analyzer (Abbott Laboratories, Abbott Park, Ill.).

porcine whole blood [2] = assay: rMil2 combined with C5 inhibitor OmCI: cytokine production in porcine whole blood ex vivo; format: cell-based; conditions: E. coli-incubated porcine whole blood
Method: as §1
Whole blood was incubated with 1 3 106 E. coli per milliliter for 2 h at 37° C. in the absence or presence of inhibitors and controls. TNF, IL-1b, and IL-8 blood was analyzed as described above.

[3] = parameters: species or system Norwegian domestic piglets (Sus scrofa domesticus); conditions: in vivo, iv; for heart rate (effect in words): 0.32 mg/kg
Method: (§2) In vivo application of anti-porcine CD14 Abs Norwegian domestic piglets (Sus scrofa domesticus, outbred stock) with a weight of 2.2 kg were isolated at the day of intervention. Anesthesia was induced with 5% sevoflurane in a mixture of air and oxygen until sleep. After establishment of an i.v. line, the piglets received fentanyl (15-20 mg/kg) were tracheotomized in the supine position, and a microcuffed endotracheal tube from Kimberly-Clark (Roswell, GA) with inner diameter of 4 mm was inserted. Maintenance anesthesia was provided with an infusion of fentanyl (50 mg/kg/h, and isoflurane 1-2% in oxygen-enriched air administered from a Leon plus ventilator from Heinen and Loevenstein (Bad Ems, Germany). An artery line was inserted in the right or left carotid artery for blood sampling during the experiments and for continuous measurement of mean artery pressure. The piglets were monitored with electrocardiography and pulse oximetry. Ventilator settings were adjusted to maintain 7.40 pH and oxygen saturation above 96%. Hemodynamic parameters were collected using ICUpilot software, CMA Microdialysis (Stockholm, Sweden) every 30 s. To compensate for hydration needs, the animals received a background infusion of isotonic sodium glucose solution, Salidex (Braun Medical A/S, Vestskogen, Norway) at 10 ml/kg/h. To compare the effect of the Mil2 and the rMil2 on healthy piglets, increasing amounts of a stock solution of 1 mg/ml rMil2 or Mil2 (batch 1106) were injected i.v. into two piglets at indicated times to a maximum dose of 5.36 mg/kg, and arterial blood samples were collected, in tubes containing the anticoagulants EDTA or citrate. To investigate the biological effect of rMIL2 on the inflammatory response, two piglets underwent the E. coli sepsis regimen as described previously (17). One control piglet was gives saline, and one piglet was given a bolus dose of 5 mg/kg rMil2 before infusion of the bacteria.

E. coli = conditions: whole pig blood; cited from earlier work
porcine CD14 [4] = target: T1, porcine CD14; assay: CD14 binding in flow cytometry, porcine whole blood (competition with FITC-conjugated Mil2); parameters: human monocyte and porcine granulocyte populations were selected based on the forward scatter-side scatter dot plot; endogenous in cells; host or cells: granulocytes in fresh porcine whole blood (EDTA); binding sites blocked (competition with FITC-conjugated Mil2 in binding to CD14) / direct binding to porcine granulocytes: dose or concentration left out as unconfirmed; conditions: for binding sites blocked (competition with FITC-conjugated Mil2 in binding to CD14): Ab, granulocytes in porcine whole blood
Method: Fresh human or porcine whole blood was drawn into tubes containing the anticoagulants lepirudin (Refludan; Pharmion, Copenhagen, Denmark) or EDTA, respectively. Blood samples were preincubated for 10 min with Ab, #20 mg/ml anti-human CD14 Abs r18D11, 18D11 F(ab)92 (batch 2068, lot 1383), or isotype controls raNIP and mIgG1 F(ab)92 (lot 1501), or […] anti-porcine CD14 Abs rMil2, Mil2 (lot 1106), or the isotype controls 4770 RECOMBINANT ANTI-CD14 Abs Downloaded from University of Oslo, Library of Medicine and Health Science on Jan. 24, 2014 for IgG2/4 and mIgG2b, eculizumab (Soliris) and mIgG2b (lot 1631), respectively. Endotoxin-free Dulbecco phosphate buffered saline, PBS (Sigma-Aldrich), was used for diluting the Abs. Subsequently, blood samples were incubated for another 15 min in the presence of detection Ab, 10 mg/ml 18D11 (batch 719, lot 3110) or 150 mg/ml FITC-conjugated Mil2 (batch 1107). Their binding was detected either by using a secondary PEconjugated anti-mouse IgG or through direct FITC fluorescence. Erythrocytes were lysed using FACS Lysing solution (BD Biosciences, Franklin Lakes, N.J.; human blood) or a solution of 0.16 M ammonium chloride, 10 mM sodium bicarbonate, 0.12 mM EDTA (Tritiplex III) and 0.04% (v/v) paraformaldehyde (porcine blood). In subsequent flow cytometry analyses, human monocyte and porcine granulocyte populations were selected based on the forward scatter-side scatter dot plot, and CD14 binding was recorded as mean or median fluorescence intensity, respectively. In contrast to humans, porcine CD14 is constitutively expressed on mature granulocytes (32, 33). Fluorescence intensities in the presence of the fluorescently labeled Abs only were set to 100%. Flow cytometry analyses on human samples were performed using an LSRII and FACSDiva software version 5.0.3; porcine samples were analyzed on a FACSCalibur using Cell Quest Pro version 5.2.1 for data acquisition (all from BD Biosciences).

porcine whole blood [5] = assay: Whole blood ex vivo model of inflammation, E. coli-induced cytokine release in porcine blood; format: cell-based; conditions: heat-inactivated E. coli
Method: as §1

[6] = system: E. coli-induced cytokine response; assay: In vivo E. coli sepsis regimen in piglets, cytokine response; parameters: species or system Norwegian domestic piglets (Sus scrofa domesticus); conditions: bolus 5 mg/kg before i.v. E. coli; vs saline control piglet
Method: as §2

porcine CD14 [7] = target: T1, porcine CD14; assay: Leukocyte CD14 expression before and after rMil2 bolus in a piglet, flow cytometry; format: in vivo, Norwegian domestic piglets (Sus scrofa domesticus); parameters: endogenous in cells; conditions: after bolus dose of 5 mg/kg
Method: as §2, with “To compare the effect of the Mil2 and the rMil2 on healthy piglets, increasing amounts of a stock solution of 1 mg/ml rMil2 or Mil2 (batch 1106) were injected i.v. into two piglets at indicated times to a maximum dose of 5.36 mg/kg, and arterial blood samples were collected, in tubes containing the anticoagulants EDTA or citrate. To investigate the biological effect of rMIL2 on the inflammatory response, two piglets underwent the E. coli sepsis regimen as described previously (17). One control piglet was gives saline, and one piglet was given a bolus dose of 5 mg/kg rMil2 before infusion of the bacteria.” left out

Molecule | spontaneous IL-8 release (porcine whole blood [1]) | platelet counts / platelet aggregation (porcine whole blood [1]) | IL-1b release (effect in words) (porcine whole blood [2]) | IL-8 release (effect in words) (porcine whole blood [2]) | TNF release (effect in words) (porcine whole blood [2]) | maximum heart rate [3] | heart rate (effect in words) [3] | E. coli survival (E. coli) | binding sites blocked (competition with FITC-conjugated Mil2 in binding to CD14) (porcine CD14 [4]) | block of IL-1b release compared with Mil2 (porcine whole blood [5]) | inhibition of TNF release compared with Mil2 (porcine whole blood [5]) | IL-1b reduction (area under the curve) [6] | IL-6 reduction (area under the curve) [6] | IL-8 reduction (area under the curve) [6] | TNF reduction (area under the curve) [6] | reduction in leukocyte CD14 expression (saturation of CD14) (porcine CD14 [7]) | direct binding to porcine granulocytes (porcine CD14 [4]; not shown) | displacement of original clone Mil2 from CD14+ granulocytes (porcine CD14 [4]; porcine whole blood)
B1 | strong spontaneous IL-8 release | dose-dependent drop in platelet counts | not significantly reduced | markedly enhanced the release | significantly reduced | ~300 beats/min | caused an increase in heart rate | does not affect E. coli survival | ~50% |  |  |  |  |  |  |  |  | 
B2 | Neither IL-8 secretion nor platelet drop nor aggregation was observed | Neither IL-8 secretion nor platelet drop nor aggregation was observed | significantly reduced the production | seemed to be substantial, but did not reach statistical significance | significantly reduced |  | but not rMil2, caused an increase in heart rate |  | ~50% | as effective as Mil2 | slightly less inhibitory | 89% | 88% | 100% | 71% | 94% | saturated | effectively bound to and displaced the original clone
